T1: rCf48 (recombinant Flag-Cf48 micropeptide) (mouse, UniProt Q3UR78 29-90)
T1 sequence: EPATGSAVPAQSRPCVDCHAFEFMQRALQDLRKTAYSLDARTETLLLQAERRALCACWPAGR

B1: Serpine1 mRNA 3'-most 134 nt WT probe (ssRNA)
RNA: CCAAAUGUGGGGUCACAUGGUCUUGAAUUUUGUGGGGUACAUAUGCCUUUGUUUGUUUGUUUUCACUUUUGAUAUAUAAACAGGUAAAUGUGUUUUUAAAAAAUAAUAAAAAUAGAGAAUAUGCAGACAAAAAAA
B2: Acta2 mRNA 3'-most 132 nt WT probe (ssRNA)
RNA: GGUGACCAGAUAGGUAAAAAACAAUUUUACGUGUAUUUAAAAUUUGGCAAGUAAUAUGGUUUUAUUAAAAUCACAUCUUUUGUAUUAAAGCAUACACACGUGCAUGGAUAUGCAUGCGUGACUUUUAACUUG

Target: T1, rCf48 (recombinant Flag-Cf48 …)
Assay: EMSA; Thermo LightShift Chemiluminescent RNA EMSA kit (20158); buffer, salt, pH and temperature not given in the material
Conditions: protein: recombinant; tags: FLAG (Fc tag removed with enterokinase); label: biotin

Row | Binder | binding result
1 | B1 | binds
2 | B2 | binds

— PMC11093611
